B1: LINE1-full (parent)
chain: UACGUAGGUGGUUUUCCCCUGAUAGUGCUAAGGGGGCCUGGAAGUUUGGACUGGGCAGAGCUCAACACAGCGUGGCAAAGUGGCUGUGGCUAGACUGCCUCUCUGGAUUCCUCGUCACUCAGCAGGGCAUCUCUGAGAGAAAUGCC

Variants of B1 are the subject of the data set. The data set can be described thus: self-cleavage, relative activity (ratio to wild type); higher = more cleavage; in vitro, sequencing; the parent is a self-cleaving ribozyme.
In the case of UACGUAGGUGGUUUUCCCCUGAUAGUGCUAAGGGGGCCUGGAAGUUUGGACUGGGCAGAGCUCAACACAGCGUGGCAAAGUGGCUGUGGCUAGACUGCCUCUCCGGAUUCCUCGUCACUCAGCUGGGCAUCUCUGAGAGAAAUGCC [U104C A124U], the self-cleavage is 1.76.

As to UACGUAGGUGGUUUUCCCCUGAUAGUGCUAAGGGGGCCUGGAAGUUUGGACUGGGCAGAGCUCAACACAGCGUGGCAAAGUGGCUGUGGCUAGACUGCCUCUCCGGAUUCCUCGUCACUCAGCAAGGCAUCUCUGAGAGAAAUGCC [U104C G125A], the self-cleavage was 1.28.

UACGUAGGUGGUUUUCCCCUGAUAGUGCUAAGGGGGCCUGGAAGUUUGGACUGGGCAGAGCUCAACACAGCGUGGCAAAGUGGCUGUGGCUAGACUGCCUCUCCGGAUUCCUCGUCGCUCAGCAGGGCAUCUCUGAGAGAAAUGCC [U104C A117G]: the self-cleavage turned out to be 1.23.

As to UACGUAGGUGGUUUUCCCCUGAUAGUGCUAAGGGGGCCUGGAAGUUUGGACUGGGCAGAGCUCAACACAGCGUGGCAAAGUGGCUGUGGCUAGACUGCCUCUCCGGACUCCUCGUCACUCAGCAGGGCAUCUCUGAGAGAAAUGCC [U104C U108C], the self-cleavage stood at 2.07.

As for UACGUAGGUGGUUUUCCCCUGAUAGUGCUAAGGGGGCCUGGAAGUUUGGACUGGGCAGAGCUCAACACAGCGUGGCAAAGUGGCUGUGGCUAGACUGCCUCUCCGGAUUCCUAGUCACUCAGCAGGGCAUCUCUGAGAGAAAUGCC [U104C C113A], the self-cleavage worked out at 2.01.

For UACGUAGGUGGUUUUCCCCUGAUAGUGCUAAGGGGGCCUGGAAGUUUGGACUGGGCAGAGCUCAACACAGCGUGGCAAAGUGGCUGUGGCUAGACUGCCUCUCCGGAUUCCUUGUCACUCAGCAGGGCAUCUCUGAGAGAAAUGCC [U104C C113U], the self-cleavage came out at 1.8.

With UACGUAGGUGGUUUUCCCCUGAUAGUGCUAAGGGGGCCUGGAAGUUUGGACUGGGCAGAGCUCAACACAGCGUGGCAAAGUGGCUGUGGCUAGACUGCCUCUCCGGAUUCCUCGUCACUCAGCAGGGCAUCUUUGAGAGAAAUGCC [U104C C133U], the self-cleavage came out at 1.72.

For the variant UACGUAGGUGGUUUUCCCCUGAUAGUGCUAAGGGGGCCUGGAAGUUUGGACUGGGCAGAGCUCAACACAGCGUGGCAAAGUGGCUGUGGCUAGACUGCCUCUCCGGAUUCCUCGUCACUCAGCAGGGCCUCUCUGAGAGAAAUGCC [U104C A129C], the self-cleavage worked out at 2.1.

Turning to UACGUAGGUGGUUUUCCCCUGAUAGUGCUAAGGGGGCCUGGAAGUUUGGACUGGGCAGAGCUCAACACAGCGUGGCAAAGUGGCUGUGGCUAGACUGCCUCUCCGGAUUCCUCGUCACUCAGCAGGGCAUCUCUGAGAGAAGUGCC [U104C A142G], the self-cleavage was 1.81.

On to UACGUAGGUGGUUUUCCCCUGAUAGUGCUAAGGGGGCCUGGAAGUUUGGACUGGGCAGAGCUCAACACAGCGUGGCAAAGUGGCUGUGGCUAGACUGCCUCUCAGGAUUCCUCGUCACACAGCAGGGCAUCUCUGAGAGAAAUGCC [U104A U119A], for which the self-cleavage was determined as 1.23.

UACGUAGGUGGUUUUCCCCUGAUAGUGCUAAGGGGGCCUGGAAGUUUGGACUGGGCAGAGCUCAACACAGCGUGGCAAAGUGGCUGUGGCUAGACUGCCUCUCAGGAUUCCUCGACACUCAGCAGGGCAUCUCUGAGAGAAAUGCC [U104A U115A]: the self-cleavage amounted to 1.13.

As for UACGUAGGUGGUUUUCCCCUGAUAGUGCUAAGGGGGCCUGGAAGUUUGGACUGGGCAGAGCUCAACACAGCGUGGCAAAGUGGCUGUGGCUAGACUGCCUCUCAGGAUUCCUCGCCACUCAGCAGGGCAUCUCUGAGAGAAAUGCC [U104A U115C], the self-cleavage came to 1.42.

On to UACGUAGGUGGUUUUCCCCUGAUAGUGCUAAGGGGGCCUGGAAGUUUGGACUGGGCAGAGCUCAACACAGCGUGGCAAAGUGGCUGUGGCUAGACUGCCUCUCCGGAUUCCUCAUCACUCAGCAGGGCAUCUCUGAGAGAAAUGCC [U104C G114A], for which the self-cleavage was 1.59.

As for UACGUAGGUGGUUUUCCCCUGAUAGUGCUAAGGGGGCCUGGAAGUUUGGACUGGGCAGAGCUCAACACAGCGUGGCAAAGUGGCUGUGGCUAGACUGCCUCUCCGGAUACCUCGUCACUCAGCAGGGCAUCUCUGAGAGAAAUGCC [U104C U109A], the self-cleavage was 0.65.

With UACGUAGGUGGUUUUCCCCUGAUAGUGCUAAGGGGGCCUGGAAGUUUGGACUGGGCAGAGCUCAACACAGCGUGGCAAAGUGGCUGUGGCUAGACUGCCUCUCCGGAUUCCUCGUUACUCAGCAGGGCAUCUCUGAGAGAAAUGCC [U104C C116U], the self-cleavage is 1.91.

For UACGUAGGUGGUUUUCCCCUGAUAGUGCUAAGGGGGCCUGGAAGUUUGGACUGGGCAGAGCUCAACACAGCGUGGCAAAGUGGCUGUGGCUAGACUGCCUCUCCGGAUUCCUCGUCACUCAGCAGGGCAUCUCUGAGAGAGAUGCC [U104C A141G], the self-cleavage was 1.69.

For the variant UACGUAGGUGGUUUUCCCCUGAUAGUGCUAAGGGGGCCUGGAAGUUUGGACUGGGCAGAGCUCAACACAGCGUGGCAAAGUGGCUGUGGCUAGACUGCCUCUCCGGAUUCCUCGUCACUCAGCAGGGCAUCUCUGAGAGACAUGCC [U104C A141C], the self-cleavage amounted to 1.73.

Consider UACGUAGGUGGUUUUCCCCUGAUAGUGCUAAGGGGGCCUGGAAGUUUGGACUGGGCAGAGCUCAACACAGCGUGGCAAAGUGGCUGUGGCUAGACUGCCUCUCCGGAUUCCUCGUCACUCAGCAGUGCAUCUCUGAGAGAAAUGCC [U104C G126U], for which the self-cleavage amounted to 1.59.

Take UACGUAGGUGGUUUUCCCCUGAUAGUGCUAAGGGGGCCUGGAAGUUUGGACUGGGCAGAGCUCAACACAGCGUGGCAAAGUGGCUGUGGCUAGACUGCCUCUCCGGAUUCCUCGUCACUUAGCAGGGCAUCUCUGAGAGAAAUGCC [U104C C120U]: the self-cleavage was found to be 1.45.

As to UACGUAGGUGGUUUUCCCCUGAUAGUGCUAAGGGGGCCUGGAAGUUUGGACUGGGCAGAGCUCAACACAGCGUGGCAAAGUGGCUGUGGCUAGACUGCCUCUCCGGAUUCCUCGUCACUCAGCAGGGCAUCUCUGAGAGUAAUGCC [U104C A140U], the self-cleavage was determined as 1.25.

For UACGUAGGUGGUUUUCCCCUGAUAGUGCUAAGGGGGCCUGGAAGUUUGGACUGGGCAGAGCUCAACACAGCGUGGCAAAGUGGCUGUGGCUAGACUGCCUCUCCGGAUUCCUCGUCACUCAGCAGGGCAUCUCUGAGAGGAAUGCC [U104C A140G], the self-cleavage amounted to 1.67.

As for UACGUAGGUGGUUUUCCCCUGAUAGUGCUAAGGGGGCCUGGAAGUUUGGACUGGGCAGAGCUCAACACAGCGUGGCAAAGUGGCUGUGGCUAGACUGCCUCUCAGGAAUCCUCGUCACUCAGCAGGGCAUCUCUGAGAGAAAUGCC [U104A U108A], the self-cleavage turned out to be 1.

Consider UACGUAGGUGGUUUUCCCCUGAUAGUGCUAAGGGGGCCUGGAAGUUUGGACUGGGCAGAGCUCAACACAGCGUGGCAAAGUGGCUGUGGCUAGACUGCCUCUCCUGAUUCCUCGUCACUCAGCAGGGCAUCUCUGAGAGAAAUGCC [U104C G105U], for which the self-cleavage was 1.66.

For the variant UACGUAGGUGGUUUUCCCCUGAUAGUGCUAAGGGGGCCUGGAAGUUUGGACUGGGCAGAGCUCAACACAGCGUGGCAAAGUGGCUGUGGCUAGACUGCCUCUCCGGAUUCCUCGUCACUCAGCAGGGCAUCUCUGAGAGAAAUGCU [U104C C146U], the self-cleavage was found to be 2.3.

For UACGUAGGUGGUUUUCCCCUGAUAGUGCUAAGGGGGCCUGGAAGUUUGGACUGGGCAGAGCUCAACACAGCGUGGCAAAGUGGCUGUGGCUAGACUGCCUCUCAGGAUUCCUCGUCACUCAGCAGGGCAUCUCUGAGAGAAACGCC [U104A U143C], the self-cleavage was determined as 1.13.

For the variant UACGUAGGUGGUUUUCCCCUGAUAGUGCUAAGGGGGCCUGGAAGUUUGGACUGGGCAGAGCUCAACACAGCGUGGCAAAGUGGCUGUGGCUAGACUGCCUCUCCGGAUUCCUCGCCACUCAGCAGGGCAUCUCUGAGAGAAAUGCC [U104C U115C], the self-cleavage amounted to 1.92.

As to UACGUAGGUGGUUUUCCCCUGAUAGUGCUAAGGGGGCCUGGAAGUUUGGACUGGGCAGAGCUCAACACAGCGUGGCAAAGUGGCUGUGGCUAGACUGCCUCUCCGGAUUCCUCGUCACACAGCAGGGCAUCUCUGAGAGAAAUGCC [U104C U119A], the self-cleavage was determined as 2.16.

As to UACGUAGGUGGUUUUCCCCUGAUAGUGCUAAGGGGGCCUGGAAGUUUGGACUGGGCAGAGCUCAACACAGCGUGGCAAAGUGGCUGUGGCUAGACUGCCUCUCCGGAUUCCUCGUCACGCAGCAGGGCAUCUCUGAGAGAAAUGCC [U104C U119G], the self-cleavage worked out at 0.

With UACGUAGGUGGUUUUCCCCUGAUAGUGCUAAGGGGGCCUGGAAGUUUGGACUGGGCAGAGCUCAACACAGCGUGGCAAAGUGGCUGUGGCUAGACUGCCUCUCCGGAUUCCUCGUCACCCAGCAGGGCAUCUCUGAGAGAAAUGCC [U104C U119C], the self-cleavage was 1.96.

For the variant UACGUAGGUGGUUUUCCCCUGAUAGUGCUAAGGGGGCCUGGAAGUUUGGACUGGGCAGAGCUCAACACAGCGUGGCAAAGUGGCUGUGGCUAGACUGCCUCUCCGGAUUCCGCGUCACUCAGCAGGGCAUCUCUGAGAGAAAUGCC [U104C U112G], the self-cleavage turned out to be 1.41.

On to UACGUAGGUGGUUUUCCCCUGAUAGUGCUAAGGGGGCCUGGAAGUUUGGACUGGGCAGAGCUCAACACAGCGUGGCAAAGUGGCUGUGGCUAGACUGCCUCUCCGGAUUCCACGUCACUCAGCAGGGCAUCUCUGAGAGAAAUGCC [U104C U112A], for which the self-cleavage turned out to be 1.8.

UACGUAGGUGGUUUUCCCCUGAUAGUGCUAAGGGGGCCUGGAAGUUUGGACUGGGCAGAGCUCAACACAGCGUGGCAAAGUGGCUGUGGCUAGACUGCCUCUCAGGAUUCCUCGUCACUCAGCAGGGCAACUCUGAGAGAAAUGCC [U104A U130A]: the self-cleavage was 0.89.

As for UACGUAGGUGGUUUUCCCCUGAUAGUGCUAAGGGGGCCUGGAAGUUUGGACUGGGCAGAGCUCAACACAGCGUGGCAAAGUGGCUGUGGCUAGACUGCCUCUCAGGAUCCCUCGUCACUCAGCAGGGCAUCUCUGAGAGAAAUGCC [U104A U109C], the self-cleavage amounted to 1.11.

As for UACGUAGGUGGUUUUCCCCUGAUAGUGCUAAGGGGGCCUGGAAGUUUGGACUGGGCAGAGCUCAACACAGCGUGGCAAAGUGGCUGUGGCUAGACUGCCUCUCAGGAUACCUCGUCACUCAGCAGGGCAUCUCUGAGAGAAAUGCC [U104A U109A], the self-cleavage came out at 0.42.

Take UACGUAGGUGGUUUUCCCCUGAUAGUGCUAAGGGGGCCUGGAAGUUUGGACUGGGCAGAGCUCAACACAGCGUGGCAAAGUGGCUGUGGCUAGACUGCCUCUCCGGAUUCCUCGUCACUCAACAGGGCAUCUCUGAGAGAAAUGCC [U104C G122A]: the self-cleavage was 1.54.

On to UACGUAGGUGGUUUUCCCCUGAUAGUGCUAAGGGGGCCUGGAAGUUUGGACUGGGCAGAGCUCAACACAGCGUGGCAAAGUGGCUGUGGCUAGACUGCCUCUCCGGAUUCCUCGUCACUCAGCAGGGCAUCUCUGUGAGAAAUGCC [U104C A136U], for which the self-cleavage came to 1.91.

On to UACGUAGGUGGUUUUCCCCUGAUAGUGCUAAGGGGGCCUGGAAGUUUGGACUGGGCAGAGCUCAACACAGCGUGGCAAAGUGGCUGUGGCUAGACUGCCUCUCCGGAUUCCUCGUCACUCAGCAGGGCAUCUCUGAGAGAAAUUCC [U104C G144U], for which the self-cleavage was found to be 2.06.

As for UACGUAGGUGGUUUUCCCCUGAUAGUGCUAAGGGGGCCUGGAAGUUUGGACUGGGCAGAGCUCAACACAGCGUGGCAAAGUGGCUGUGGCUAGACUGCCUCUCAGGAUUCCUCGUCACUCAGCAGGGCAUCACUGAGAGAAAUGCC [U104A U132A], the self-cleavage came out at 1.64.

For UACGUAGGUGGUUUUCCCCUGAUAGUGCUAAGGGGGCCUGGAAGUUUGGACUGGGCAGAGCUCAACACAGCGUGGCAAAGUGGCUGUGGCUAGACUGCCUCUCAGGAUUCCUCGUCACUCAGCAGGGCAUCCCUGAGAGAAAUGCC [U104A U132C], the self-cleavage was determined as 1.08.

The record behind these values is the RNAGym collection of RNA variant scans (doi:10.7554/elife.90254).
